Experimental data taken from patent publication US20210139548A1 (published 2021).
One block for each binder: values may come before it. *1 amine or outer side, *2 acyl side, *3 side chain or, on linkers, in order; H or OH if unused. Side-chain parts run from the residue outwards. The star is where a group is joined. C18 diacid = O=C(O)CCCCCCCCCCCCCCCCC(=O)*; γGlu = O=C(O)[C@H](CCC(=O)[*:2])N[*:1]; Isovaleryl = CC(C)CC(=O)*; AEEA = NCCOCCOCC(=O)O

Biological target: T1, human neuropeptide Y2 receptor (human, UniProt P49146 1-381)
T1 construct: whole, on cells; also called hNPY2 receptor; hNPY2-R
T1 sequence (looked up): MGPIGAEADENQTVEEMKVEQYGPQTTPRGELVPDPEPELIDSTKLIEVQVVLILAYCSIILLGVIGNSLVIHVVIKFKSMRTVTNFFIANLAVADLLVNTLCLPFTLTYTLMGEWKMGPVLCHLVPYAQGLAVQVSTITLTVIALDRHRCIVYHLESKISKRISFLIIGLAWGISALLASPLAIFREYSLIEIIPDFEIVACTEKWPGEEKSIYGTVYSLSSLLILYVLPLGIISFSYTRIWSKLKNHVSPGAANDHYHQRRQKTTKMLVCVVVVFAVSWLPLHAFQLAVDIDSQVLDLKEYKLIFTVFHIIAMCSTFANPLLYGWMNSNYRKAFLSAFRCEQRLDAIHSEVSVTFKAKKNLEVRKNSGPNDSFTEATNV
Assay: radioligand competition (125I-PYY(1-36)), hNPY2R membranes
In short: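 Commercial human Y2 receptor membranes (0.5 μg protein/well) were incubated with peptide for 2 h at room temperature in 50 mM HEPES, 5 mM MgCl₂, 1 mM CaCl₂, pH 7.4, with 0.2% ovalbumin. Bound radioligand was separated on PEI-soaked GF/C filters and counted by scintillation, and IC₅₀ came from nonlinear sigmoidal regression.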

- Ki: 3.32 nM
B1: Compound 119 (peptide)
peptide: Isovaleryl-APEK([AEEA-AEEA-γGlu-C18 diacid])PEEEASPEELQRYYVTLRHYYNWLTRQRY-NH2
SMILES: CC(C)CC(=O)N[C@@H](C)C(=O)N1CCC[C@H]1C(=O)N[C@@H](CCC(=O)O)C(=O)N[C@@H](CCCCNC(=O)COCCOCCNC(=O)COCCOCCNC(=O)CC[C@H](NC(=O)CCCCCCCCCCCCCCCCC(=O)O)C(=O)O)C(=O)N1CCC[C@H]1C(=O)N[C@@H](CCC(=O)O)C(=O)N[C@@H](CCC(=O)O)C(=O)N[C@@H](CCC(=O)O)C(=O)N[C@@H](C)C(=O)N[C@@H](CO)C(=O)N1CCC[C@H]1C(=O)N[C@@H](CCC(=O)O)C(=O)N[C@@H](CCC(=O)O)C(=O)N[C@@H](CC(C)C)C(=O)N[C@@H](CCC(N)=O)C(=O)N[C@@H](CCCNC(=N)N)C(=O)N[C@@H](Cc1ccc(O)cc1)C(=O)N[C@@H](Cc1ccc(O)cc1)C(=O)N[C@H](C(=O)N[C@H](C(=O)N[C@@H](CC(C)C)C(=O)N[C@@H](CCCNC(=N)N)C(=O)N[C@@H](Cc1c[nH]cn1)C(=O)N[C@@H](Cc1ccc(O)cc1)C(=O)N[C@@H](Cc1ccc(O)cc1)C(=O)N[C@@H](CC(N)=O)C(=O)N[C@@H](Cc1c[nH]c2ccccc12)C(=O)N[C@@H](CC(C)C)C(=O)N[C@H](C(=O)N[C@@H](CCCNC(=N)N)C(=O)N[C@@H](CCC(N)=O)C(=O)N[C@@H](CCCNC(=N)N)C(=O)N[C@@H](Cc1ccc(O)cc1)C(N)=O)[C@@H](C)O)[C@@H](C)O)C(C)C

- Ki: 0.61 nM
B2: Compound 121 (peptide)
peptide: Isovaleryl-APAK([AEEA-AEEA-γGlu-C18 diacid])PEADASPEELQRYYVSLRHYYNWLTRQRY-NH2
SMILES: CC(C)CC(=O)N[C@@H](C)C(=O)N1CCC[C@H]1C(=O)N[C@@H](C)C(=O)N[C@@H](CCCCNC(=O)COCCOCCNC(=O)COCCOCCNC(=O)CC[C@H](NC(=O)CCCCCCCCCCCCCCCCC(=O)O)C(=O)O)C(=O)N1CCC[C@H]1C(=O)N[C@@H](CCC(=O)O)C(=O)N[C@@H](C)C(=O)N[C@@H](CC(=O)O)C(=O)N[C@@H](C)C(=O)N[C@@H](CO)C(=O)N1CCC[C@H]1C(=O)N[C@@H](CCC(=O)O)C(=O)N[C@@H](CCC(=O)O)C(=O)N[C@@H](CC(C)C)C(=O)N[C@@H](CCC(N)=O)C(=O)N[C@@H](CCCNC(=N)N)C(=O)N[C@@H](Cc1ccc(O)cc1)C(=O)N[C@@H](Cc1ccc(O)cc1)C(=O)N[C@H](C(=O)N[C@@H](CO)C(=O)N[C@@H](CC(C)C)C(=O)N[C@@H](CCCNC(=N)N)C(=O)N[C@@H](Cc1c[nH]cn1)C(=O)N[C@@H](Cc1ccc(O)cc1)C(=O)N[C@@H](Cc1ccc(O)cc1)C(=O)N[C@@H](CC(N)=O)C(=O)N[C@@H](Cc1c[nH]c2ccccc12)C(=O)N[C@@H](CC(C)C)C(=O)N[C@H](C(=O)N[C@@H](CCCNC(=N)N)C(=O)N[C@@H](CCC(N)=O)C(=O)N[C@@H](CCCNC(=N)N)C(=O)N[C@@H](Cc1ccc(O)cc1)C(N)=O)[C@@H](C)O)C(C)C

- Ki: 1.18 nM
B3: Compound 126 (peptide)
peptide: Isovaleryl-APAK([AEEA-AEEA-γGlu-C18 diacid])PEEDSSPEELQRYYVSLRHYYNWLTRQRY-NH2
SMILES: CC(C)CC(=O)N[C@@H](C)C(=O)N1CCC[C@H]1C(=O)N[C@@H](C)C(=O)N[C@@H](CCCCNC(=O)COCCOCCNC(=O)COCCOCCNC(=O)CC[C@H](NC(=O)CCCCCCCCCCCCCCCCC(=O)O)C(=O)O)C(=O)N1CCC[C@H]1C(=O)N[C@@H](CCC(=O)O)C(=O)N[C@@H](CCC(=O)O)C(=O)N[C@@H](CC(=O)O)C(=O)N[C@@H](CO)C(=O)N[C@@H](CO)C(=O)N1CCC[C@H]1C(=O)N[C@@H](CCC(=O)O)C(=O)N[C@@H](CCC(=O)O)C(=O)N[C@@H](CC(C)C)C(=O)N[C@@H](CCC(N)=O)C(=O)N[C@@H](CCCNC(=N)N)C(=O)N[C@@H](Cc1ccc(O)cc1)C(=O)N[C@@H](Cc1ccc(O)cc1)C(=O)N[C@H](C(=O)N[C@@H](CO)C(=O)N[C@@H](CC(C)C)C(=O)N[C@@H](CCCNC(=N)N)C(=O)N[C@@H](Cc1c[nH]cn1)C(=O)N[C@@H](Cc1ccc(O)cc1)C(=O)N[C@@H](Cc1ccc(O)cc1)C(=O)N[C@@H](CC(N)=O)C(=O)N[C@@H](Cc1c[nH]c2ccccc12)C(=O)N[C@@H](CC(C)C)C(=O)N[C@H](C(=O)N[C@@H](CCCNC(=N)N)C(=O)N[C@@H](CCC(N)=O)C(=O)N[C@@H](CCCNC(=N)N)C(=O)N[C@@H](Cc1ccc(O)cc1)C(N)=O)[C@@H](C)O)C(C)C

- Ki: 11.1 nM
B4: Compound 130 (peptide)
peptide: Isovaleryl-APEK([AEEA-AEEA-γGlu-C18 diacid])PEEDTSAEELQRYYVSLRHYYNWLTRQRY-NH2
SMILES: CC(C)CC(=O)N[C@@H](C)C(=O)N1CCC[C@H]1C(=O)N[C@@H](CCC(=O)O)C(=O)N[C@@H](CCCCNC(=O)COCCOCCNC(=O)COCCOCCNC(=O)CC[C@H](NC(=O)CCCCCCCCCCCCCCCCC(=O)O)C(=O)O)C(=O)N1CCC[C@H]1C(=O)N[C@@H](CCC(=O)O)C(=O)N[C@@H](CCC(=O)O)C(=O)N[C@@H](CC(=O)O)C(=O)N[C@H](C(=O)N[C@@H](CO)C(=O)N[C@@H](C)C(=O)N[C@@H](CCC(=O)O)C(=O)N[C@@H](CCC(=O)O)C(=O)N[C@@H](CC(C)C)C(=O)N[C@@H](CCC(N)=O)C(=O)N[C@@H](CCCNC(=N)N)C(=O)N[C@@H](Cc1ccc(O)cc1)C(=O)N[C@@H](Cc1ccc(O)cc1)C(=O)N[C@H](C(=O)N[C@@H](CO)C(=O)N[C@@H](CC(C)C)C(=O)N[C@@H](CCCNC(=N)N)C(=O)N[C@@H](Cc1c[nH]cn1)C(=O)N[C@@H](Cc1ccc(O)cc1)C(=O)N[C@@H](Cc1ccc(O)cc1)C(=O)N[C@@H](CC(N)=O)C(=O)N[C@@H](Cc1c[nH]c2ccccc12)C(=O)N[C@@H](CC(C)C)C(=O)N[C@H](C(=O)N[C@@H](CCCNC(=N)N)C(=O)N[C@@H](CCC(N)=O)C(=O)N[C@@H](CCCNC(=N)N)C(=O)N[C@@H](Cc1ccc(O)cc1)C(N)=O)[C@@H](C)O)C(C)C)[C@@H](C)O

- Ki: 1.84 nM
B5: Compound 122 (peptide)
peptide: Isovaleryl-APEK([AEEA-AEEA-γGlu-C18 diacid])PEEDAAPEELQRYYVSLRHYYNWLTRQRY-NH2
SMILES: CC(C)CC(=O)N[C@@H](C)C(=O)N1CCC[C@H]1C(=O)N[C@@H](CCC(=O)O)C(=O)N[C@@H](CCCCNC(=O)COCCOCCNC(=O)COCCOCCNC(=O)CC[C@H](NC(=O)CCCCCCCCCCCCCCCCC(=O)O)C(=O)O)C(=O)N1CCC[C@H]1C(=O)N[C@@H](CCC(=O)O)C(=O)N[C@@H](CCC(=O)O)C(=O)N[C@@H](CC(=O)O)C(=O)N[C@@H](C)C(=O)N[C@@H](C)C(=O)N1CCC[C@H]1C(=O)N[C@@H](CCC(=O)O)C(=O)N[C@@H](CCC(=O)O)C(=O)N[C@@H](CC(C)C)C(=O)N[C@@H](CCC(N)=O)C(=O)N[C@@H](CCCNC(=N)N)C(=O)N[C@@H](Cc1ccc(O)cc1)C(=O)N[C@@H](Cc1ccc(O)cc1)C(=O)N[C@H](C(=O)N[C@@H](CO)C(=O)N[C@@H](CC(C)C)C(=O)N[C@@H](CCCNC(=N)N)C(=O)N[C@@H](Cc1c[nH]cn1)C(=O)N[C@@H](Cc1ccc(O)cc1)C(=O)N[C@@H](Cc1ccc(O)cc1)C(=O)N[C@@H](CC(N)=O)C(=O)N[C@@H](Cc1c[nH]c2ccccc12)C(=O)N[C@@H](CC(C)C)C(=O)N[C@H](C(=O)N[C@@H](CCCNC(=N)N)C(=O)N[C@@H](CCC(N)=O)C(=O)N[C@@H](CCCNC(=N)N)C(=O)N[C@@H](Cc1ccc(O)cc1)C(N)=O)[C@@H](C)O)C(C)C

- Ki: 0.5 nM
B6: Compound 124 (peptide)
peptide: Isovaleryl-APEK([AEEA-AEEA-γGlu-C18 diacid])PEEDAAPEEIQRYYVSLRHYYNWLTRQRY-NH2
SMILES: CC[C@H](C)[C@H](NC(=O)[C@H](CCC(=O)O)NC(=O)[C@H](CCC(=O)O)NC(=O)[C@@H]1CCCN1C(=O)[C@H](C)NC(=O)[C@H](C)NC(=O)[C@H](CC(=O)O)NC(=O)[C@H](CCC(=O)O)NC(=O)[C@H](CCC(=O)O)NC(=O)[C@@H]1CCCN1C(=O)[C@H](CCCCNC(=O)COCCOCCNC(=O)COCCOCCNC(=O)CC[C@H](NC(=O)CCCCCCCCCCCCCCCCC(=O)O)C(=O)O)NC(=O)[C@H](CCC(=O)O)NC(=O)[C@@H]1CCCN1C(=O)[C@H](C)NC(=O)CC(C)C)C(=O)N[C@@H](CCC(N)=O)C(=O)N[C@@H](CCCNC(=N)N)C(=O)N[C@@H](Cc1ccc(O)cc1)C(=O)N[C@@H](Cc1ccc(O)cc1)C(=O)N[C@H](C(=O)N[C@@H](CO)C(=O)N[C@@H](CC(C)C)C(=O)N[C@@H](CCCNC(=N)N)C(=O)N[C@@H](Cc1c[nH]cn1)C(=O)N[C@@H](Cc1ccc(O)cc1)C(=O)N[C@@H](Cc1ccc(O)cc1)C(=O)N[C@@H](CC(N)=O)C(=O)N[C@@H](Cc1c[nH]c2ccccc12)C(=O)N[C@@H](CC(C)C)C(=O)N[C@H](C(=O)N[C@@H](CCCNC(=N)N)C(=O)N[C@@H](CCC(N)=O)C(=O)N[C@@H](CCCNC(=N)N)C(=O)N[C@@H](Cc1ccc(O)cc1)C(N)=O)[C@@H](C)O)C(C)C
